The source of these data is patent US20240382606A1.

The target of this test is CD8 co-receptors on CD8+ T cells (OT-1 mouse splenocytes) (mouse) (UniProt P01731). Nature of the test: flow cytometry, noncognate APNs on OT-1 CD8+ splenocytes, in vitro.
Sequence of UniProt P01731 (P01731 28-247, chain 1 of 2): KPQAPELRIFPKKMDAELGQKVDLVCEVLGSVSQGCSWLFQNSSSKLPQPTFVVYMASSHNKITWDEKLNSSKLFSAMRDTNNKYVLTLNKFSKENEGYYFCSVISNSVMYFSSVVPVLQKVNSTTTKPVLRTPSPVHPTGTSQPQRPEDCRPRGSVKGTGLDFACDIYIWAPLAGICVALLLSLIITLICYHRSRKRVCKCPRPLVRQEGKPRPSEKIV
Sequence of UniProt P01731 (P10300 22-213, chain 2 of 2, further chain): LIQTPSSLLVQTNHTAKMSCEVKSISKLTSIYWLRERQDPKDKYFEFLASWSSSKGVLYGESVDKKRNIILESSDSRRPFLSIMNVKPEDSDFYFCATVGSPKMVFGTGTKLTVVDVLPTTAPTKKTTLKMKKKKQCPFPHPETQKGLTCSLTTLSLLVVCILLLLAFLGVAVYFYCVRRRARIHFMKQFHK

Substance “NS2/K^b antigen-presenting nanoparticle (APN): NS2 peptide RTFSFQLI on H2-K^b on an mRNA lipid nanoparticle (peptide-MHC)” yielded a percent cross-reactivity of 10%.
